{"source": "patent US20070111947A1", "about": "“Fibrin targeted therapeutics” (priority 2005, published 2007)", "tested_on": "arterial thrombosis (FeCl3 damaged carotid artery)", "test": "Arterial thrombosis model (FeCl3 damaged carotid artery)", "assay_type": "in vivo, rabbit", "experimental": "Rabbits are initially sedated with a subcutaneous injection of Xylazine (5 mg/kg). Approximately 5 min following sedation, the animals are anesthetized with a dose of Ketamine (50 mg/kg) and Acepromazine (2.5 mg/kg) intramuscularly to achieve the appropriate level of anesthesia. Anesthetic depth will be assessed using the pain withdraw reflexes and EKG. Anesthesia is given intravenously every 45-60 min at 5-10 mg/kg to maintain proper anesthetic depth.\nLeft carotid artery is isolated using a ventral midline approach. A stenosis is initiated on the carotid artery reducing blood flow by 70-80%. 1 cm segments of carotid artery are placed in a plastic tube opened lengthwise, together with a filter paper (diameter 3 mm) soaked in ferric chloride (FeCl3, 40 μL, 40% w/w). After 15-30 min exposure of the artery to FeCl3, the plastic tube with the filter paper is removed and the artery is rinsed with saline. The time to vessel occlusion is monitored using a Doppler flow probe, which is attached to the carotid artery. ^125I fibrinogen (30 μCi/kg) is administered 5 min before initiation of the stenosis. The saline, test or control compounds are given via the jugular vein as an intravenous bolus injection immediately before or at the end of FeCl3 exposure. Blood sample are collected at 1, 3, 5, 12, 20, 30, 45, 60 and 90 min after compound injection via the contra lateral jugular vein. The time that blood flow dropped to zero is recorded as the occlusion time of blood vessel. At the end of experiment, animals are sacrificed with an overdose of pentobarbital (120 mg/kg). Both the clot from the FeCl3 damaged artery, and the damaged artery after clot removal are weighed. Right carotid artery is used as a control. Concentration of test compound and fibrin in the clot are detected by γ-countering.\nPharmacokinetics of compound are analyzed by using the WinNonLin program.", "key": {"[1]": {"conditions": "compared to an equivalent dose of Non-binder control, FIG. 4"}}}
{"smiles": "CCC(C)[C@H](CC(=O)[C@@H](C)Cc1c[nH]cn1)C(=O)N[C@@H](CC(C)C)C(=O)NCc1ccc(CCC(=O)[C@H](CCNC(=O)CC[C@H]2C(=O)[O][Y]345[O]C(=O)CN(CCN2CCN(CC(=O)[O]3)CC(=O)[O]4)CC(=O)[O]5)NC(=O)CC[C@H]2C(=O)[O][Y]345[O]C(=O)CN(CCN2CCN(CC(=O)[O]3)CC(=O)[O]4)CC(=O)[O]5)cc1", "note": "(stereo partly shown) [Hybrid Molecule 3]", "values": [{"measurement": "higher level bound to clot", "setting": "[1]", "result": 5, "unit": "fold"}, {"measurement": "higher level bound to clot plus damaged artery", "setting": "[1]", "result": 2, "unit": "fold"}, {"measurement": "increased time to occlusion", "setting": "compared to an equivalent dose of melagatran alone or the Non-binder, FIG. 2", "result": "approximately 4 fold"}, {"measurement": "decrease in clot weight", "setting": "compared to an equivalent dose of melagatran or Non-binder control, FIG. 3", "result": "approximately 2 fold"}]}
